{"source": "the supplement of paper PMC9112550", "about": "“Optimization of the antimicrobial peptide Bac7 by deep mutational scanning” (BMC Biology, 2022);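 also: peptides expressed intracellularly from a pBAD plasmid library in pooled LB shake-flask culture, induced with 0.3% L-arabinose, DNA abundance read by NGS, three biological replicates, DESeq2 with apeglm shrinkage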"}
{"system": "Escherichia coli TOP10", "test": "shrunken log2 fold change of peptide-encoding DNA abundance (4.5 h post-induction vs induction); higher = less antimicrobial activity (less host growth inhibition)", "conditions": "time post-induction: 4.5 h; library: site-saturation at positions 5, 18, 19, 20"}
{"sequence": "RRIRMRPPRLPRPRPRPQCEPRP", "shrunken log2 fold change": -0.00192}
{"sequence": "RRIRARPPRLPRPRPRPYAYPRP", "shrunken log2 fold change": 0.104}
{"sequence": "RRIRTRPPRLPRPRPRPWVMPRP", "shrunken log2 fold change": -0.125}
{"sequence": "RRIRHRPPRLPRPRPRPNHSPRP", "shrunken log2 fold change": -0.785}
{"sequence": "RRIRARPPRLPRPRPRPKITPRP", "shrunken log2 fold change": -0.0367}
{"sequence": "RRIRMRPPRLPRPRPRPRTSPRP", "shrunken log2 fold change": 0.623}
{"sequence": "RRIRSRPPRLPRPRPRPIFRPRP", "shrunken log2 fold change": 0.0112}
{"sequence": "RRIRCRPPRLPRPRPRPSCEPRP", "shrunken log2 fold change": -0.493}
{"sequence": "RRIRCRPPRLPRPRPRPVDTPRP", "shrunken log2 fold change": -0.0338}
{"sequence": "RRIRWRPPRLPRPRPRPCNFPRP", "shrunken log2 fold change": -0.464}
{"sequence": "RRIRARPPRLPRPRPRPLWFPRP", "shrunken log2 fold change": 0.145}
{"sequence": "RRIRTRPPRLPRPRPRPDTNPRP", "shrunken log2 fold change": -0.558}
{"sequence": "RRIRCRPPRLPRPRPRPITTPRP", "shrunken log2 fold change": -0.197}
{"sequence": "RRIRNRPPRLPRPRPRPWIMPRP", "shrunken log2 fold change": -1.05}
{"sequence": "RRIRNRPPRLPRPRPRPMNMPRP", "shrunken log2 fold change": -0.356}
{"sequence": "RRIRHRPPRLPRPRPRPHKYPRP", "shrunken log2 fold change": -0.242}
{"sequence": "RRIRFRPPRLPRPRPRPNISPRP", "shrunken log2 fold change": -0.503}
{"sequence": "RRIRGRPPRLPRPRPRPPDLPRP", "shrunken log2 fold change": 0.791}
{"sequence": "RRIRVRPPRLPRPRPRPSHMPRP", "shrunken log2 fold change": -0.585}
{"sequence": "RRIRHRPPRLPRPRPRPQKYPRP", "shrunken log2 fold change": -0.383}
{"sequence": "RRIRSRPPRLPRPRPRPCCGPRP", "shrunken log2 fold change": 0.983}
{"sequence": "RRIRCRPPRLPRPRPRPEKPPRP", "shrunken log2 fold change": 0.118}
{"sequence": "RRIRIRPPRLPRPRPRPSEIPRP", "shrunken log2 fold change": 0.0838}
{"sequence": "RRIRKRPPRLPRPRPRPTQTPRP", "shrunken log2 fold change": 1.25}
{"sequence": "RRIRYRPPRLPRPRPRPIWSPRP", "shrunken log2 fold change": -0.0646}
{"sequence": "RRIRDRPPRLPRPRPRPHWDPRP", "shrunken log2 fold change": -0.0788}
{"sequence": "RRIRERPPRLPRPRPRPGWEPRP", "shrunken log2 fold change": 0.0307}
{"sequence": "RRIRFRPPRLPRPRPRPIPDPRP", "shrunken log2 fold change": -0.215}
{"sequence": "RRIRKRPPRLPRPRPRPDVAPRP", "shrunken log2 fold change": 0.0256}
{"sequence": "RRIRWRPPRLPRPRPRPLMWPRP", "shrunken log2 fold change": 0.173}
{"sequence": "RRIRTRPPRLPRPRPRPRTNPRP", "shrunken log2 fold change": -0.192}
{"sequence": "RRIRDRPPRLPRPRPRPMSTPRP", "shrunken log2 fold change": 0.0569}
{"sequence": "RRIRARPPRLPRPRPRPKHNPRP", "shrunken log2 fold change": 0.114}
{"sequence": "RRIRLRPPRLPRPRPRPLNSPRP", "shrunken log2 fold change": -0.389}
{"sequence": "RRIRMRPPRLPRPRPRPPELPRP", "shrunken log2 fold change": 0.372}
{"sequence": "RRIRSRPPRLPRPRPRPCIDPRP", "shrunken log2 fold change": -0.607}
{"sequence": "RRIRTRPPRLPRPRPRPKHEPRP", "shrunken log2 fold change": -0.3}
{"sequence": "RRIRMRPPRLPRPRPRPMISPRP", "shrunken log2 fold change": -0.0256}
{"sequence": "RRIRRRPPRLPRPRPRPNDLPRP", "shrunken log2 fold change": -0.0791}
{"sequence": "RRIRKRPPRLPRPRPRPYWYPRP", "shrunken log2 fold change": -0.667}
{"sequence": "RRIRKRPPRLPRPRPRPVFHPRP", "shrunken log2 fold change": 0.818}
{"sequence": "RRIRFRPPRLPRPRPRPCIDPRP", "shrunken log2 fold change": 0.255}
{"sequence": "RRIRLRPPRLPRPRPRPVRVPRP", "shrunken log2 fold change": 0.428}
{"sequence": "RRIRDRPPRLPRPRPRPRWLPRP", "shrunken log2 fold change": 0.511}
{"sequence": "RRIRLRPPRLPRPRPRPSRYPRP", "shrunken log2 fold change": -0.0576}
{"sequence": "RRIRWRPPRLPRPRPRPWEYPRP", "shrunken log2 fold change": -0.0716}
{"sequence": "RRIRERPPRLPRPRPRPMKWPRP", "shrunken log2 fold change": -0.0404}
{"sequence": "RRIRNRPPRLPRPRPRPTLIPRP", "shrunken log2 fold change": -0.461}
{"sequence": "RRIRTRPPRLPRPRPRPVAKPRP", "shrunken log2 fold change": 0.111}
{"sequence": "RRIRARPPRLPRPRPRPIDFPRP", "shrunken log2 fold change": 0.125}
{"sequence": "RRIRARPPRLPRPRPRPNLWPRP", "shrunken log2 fold change": 0.467}
{"sequence": "RRIRFRPPRLPRPRPRPFRHPRP", "shrunken log2 fold change": 0.0504}
{"sequence": "RRIRIRPPRLPRPRPRPPHAPRP", "shrunken log2 fold change": 0.162}
{"sequence": "RRIRPRPPRLPRPRPRPLSWPRP", "shrunken log2 fold change": 0.238}
{"sequence": "RRIRGRPPRLPRPRPRPMEHPRP", "shrunken log2 fold change": 0.171}
{"sequence": "RRIRARPPRLPRPRPRPKSTPRP", "shrunken log2 fold change": 0.28}
{"sequence": "RRIRKRPPRLPRPRPRPKTNPRP", "shrunken log2 fold change": 0.485}
{"sequence": "RRIRLRPPRLPRPRPRPESEPRP", "shrunken log2 fold change": -0.000997}
{"sequence": "RRIRCRPPRLPRPRPRPWQKPRP", "shrunken log2 fold change": -0.0588}
{"sequence": "RRIRERPPRLPRPRPRPPAAPRP", "shrunken log2 fold change": 0.252}
{"sequence": "RRIRSRPPRLPRPRPRPSPPPRP", "shrunken log2 fold change": 0.154}
{"sequence": "RRIRFRPPRLPRPRPRPMTYPRP", "shrunken log2 fold change": -0.0939}
{"sequence": "RRIRFRPPRLPRPRPRPDATPRP", "shrunken log2 fold change": 0.486}
{"sequence": "RRIRPRPPRLPRPRPRPYCAPRP", "shrunken log2 fold change": -0.312}
{"sequence": "RRIRYRPPRLPRPRPRPVCAPRP", "shrunken log2 fold change": -0.232}
{"sequence": "RRIRVRPPRLPRPRPRPEMKPRP", "shrunken log2 fold change": -0.184}
{"sequence": "RRIRSRPPRLPRPRPRPENVPRP", "shrunken log2 fold change": 0.0202}
{"sequence": "RRIRKRPPRLPRPRPRPSYWPRP", "shrunken log2 fold change": -0.144}
{"sequence": "RRIRSRPPRLPRPRPRPNCIPRP", "shrunken log2 fold change": -0.416}
{"sequence": "RRIRQRPPRLPRPRPRPRCGPRP", "shrunken log2 fold change": 0.236}
{"sequence": "RRIRKRPPRLPRPRPRPIKQPRP", "shrunken log2 fold change": -0.089}
{"sequence": "RRIRHRPPRLPRPRPRPELFPRP", "shrunken log2 fold change": 0.458}
{"sequence": "RRIRTRPPRLPRPRPRPEKCPRP", "shrunken log2 fold change": 0.0324}
{"sequence": "RRIRGRPPRLPRPRPRPMCCPRP", "shrunken log2 fold change": 0.164}
{"sequence": "RRIRSRPPRLPRPRPRPNGPPRP", "shrunken log2 fold change": -0.42}
